In article PMC11579972 (Small (Weinheim an Der Bergstrasse, Germany), 2024):

How the values were obtained:
[1] = target: T1, An‐FD, Pro‐Asp‐(Phe‐Asp)5‐Pro; experiment: other fluorescence titration
T1 chain: PDFDFDFDFDFDP

[2] = target: T2, An‐FD, Pro‐Asp‐(Phe‐Asp)5‐Pro; experiment: MST
T2 peptide: PDFDFDFDFDFDP

[3] = target: T2, An‐FD, Pro‐Asp‐(Phe‐Asp)5‐Pro; experiment: ITC
[4] = target: T3, Sc‐FD (a scrambled version of An‐FD); experiment: ITC
T3 peptide: DFFPDDPFDFFDD

Kd [2]: 50 ± 8 µM
Kd [3]: ~40 µM
dH [3]: -35 kJ/mol
stoichiometry N [3]: 1.12
dH [4]: 6 ± 12 kJ/mol
Binder: PKFKFKFKFKFKP [Cat‐FK, Pro‐Lys‐(Phe‐Lys)5‐Pro]
critical coassembly concentration (CCC) at 25% An-FD [1]: 0.096, 0.058, and 0.14 mM
critical coassembly concentration (CCC) at 50% An-FD [1]: 0.096, 0.058, and 0.14 mM
critical coassembly concentration (CCC) at 75% An-FD [1]: 0.096, 0.058, and 0.14 mM
